In US20240141061A1, “NOVEL ANTIBODY AGAINST CD55 AND USE THEREOF” (SG MEDICAL INC, priority 2021, published 2024):

T1: recombinant human CD55 (Homo sapiens, UniProt P08174)
T1 construct: purchased R&D Systems 2009-CD/CF
T1 sequence (P08174 35-353): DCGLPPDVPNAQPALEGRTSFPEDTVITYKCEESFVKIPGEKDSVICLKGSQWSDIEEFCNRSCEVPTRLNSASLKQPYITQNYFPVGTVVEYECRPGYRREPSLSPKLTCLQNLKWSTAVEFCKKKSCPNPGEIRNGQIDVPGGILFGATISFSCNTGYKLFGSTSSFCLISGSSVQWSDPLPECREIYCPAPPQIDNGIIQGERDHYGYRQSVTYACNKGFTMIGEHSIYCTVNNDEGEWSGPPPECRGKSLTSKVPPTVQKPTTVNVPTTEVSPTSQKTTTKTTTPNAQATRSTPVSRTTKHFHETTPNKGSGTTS

T2: recombinant human CD55 (R&D Systems 2009-CD/CF) (human, UniProt P08174 35-353)
T2 construct: Bought recombinant protein coated on ELISA plates; also called decay-accelerating factor; DAF
T2 sequence (looked up): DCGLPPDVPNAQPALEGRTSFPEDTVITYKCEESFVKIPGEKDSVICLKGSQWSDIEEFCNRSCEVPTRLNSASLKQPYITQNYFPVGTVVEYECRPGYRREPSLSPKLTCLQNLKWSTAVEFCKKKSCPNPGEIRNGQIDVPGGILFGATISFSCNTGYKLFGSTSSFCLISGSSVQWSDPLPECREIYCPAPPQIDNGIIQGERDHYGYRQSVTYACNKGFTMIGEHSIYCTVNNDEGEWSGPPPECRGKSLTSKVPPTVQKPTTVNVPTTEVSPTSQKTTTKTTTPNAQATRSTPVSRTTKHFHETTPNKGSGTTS


Molecular target: T1, recombinant human CD55
Assay: Indirect ELISA, affinity for CD55
Format: binding
Conditions: full-length antibody 0.0001-10 nM on CD55 coated at 1 μg/mL
Method: The binding ability of the G4-1H monoclonal antibody prepared in Example 2 for CD55 was investigated by indirect ELISA. For the indirect ELISA, recombinant human CD55 (R&D Systems, USA) diluted to 1 μg/mL in 50 μL of PBS was added to a 96-well immunoplate (Corning, USA) and then adsorbed by keeping at 4° C. overnight. After incubation for 1 hour at room temperature in a buffer containing 3% bovine serum albumin (Millipore, USA), followed by washing with a buffer containing 0.5% Tween 20 (Amresco, USA) three times, 50 μL of the serially diluted antibody (0.0001, 0.0003, 0.001, 0.003, 0.01, 0.03, 0.1, 0.3, 1, 3 and 10 nM) was treated per well. After incubation at room temperature for 2 hours for antibody-antigen binding, the antibody-antigen complex was washed three times with a buffer containing 0.5% Tween 20 (Amresco, USA). After treating with 50 μL of anti-human immunoglobulin Fc-HRP antibody (Jackson Immunoresearch, USA) diluted to 1:3,000 per well, followed by incubation at room temperature for 1 hour and washing three times with a buffer containing 0.5% Tween 20 (Amresco, USA), color development was conducted for 10 minutes by adding 50 μL of 3,3′,5,5′-tetramethylbenzidine (TMB) (ThermoFisher Scientific, USA).
The affinity of the antibodies screened in Example 6 for CD55 was investigated by indirect ELISA. The indirect ELISA was conducted in the same manner as in Example 3.
The affinity of the antibodies prepared in Example 8 for CD55 was investigated by indirect ELISA. The indirect ELISA was conducted in the same manner as in Example 3. […]

| affinity for CD55 (indirect ELISA, absorbance at 450 nm) | Molecule |
| --- | --- |
| lower affinity than EP-10H | 10H(M): EP-10H backbone with H100A site replaced with M, VH SEQ ID NO 29, EP-10H light chain (antibody, V domains shown) VH: EVQLAESGGGLVQPGGSLRLSCAASGFTFSDRGMAWVRQAPGKGLEWVSGISSSGRYTYYAPAVKGRATISRDNSKNTLYLQMNSLRAEDTAVYYCAKNAMAGGWHAAYIDAWGQGTTVTVSS VL: SYELTQPPSVSVSPGQTASITCSGGGGSYGWYQQKPGQSPVTVIYWNDKRPSGIPERFSGSKSGNTATLTISGTQAMDEADYYCGGWDSSTYAIFGGGTKLTVL |
| lower affinity for CD55 than 4-1H | G4-1H: humanized 4-1H anti-CD55 antibody, VL SEQ ID NO 4, VH SEQ ID NO 5 (antibody, V domains shown, G4-1H_VH; G4-1H_VL) VH: EVQLVESGGGLVQPGGSLRLSCAASGFTFSDRGMAWVRQAPGKGLEWVSGISSSGRYTYYAPAVKGRATISRDNSKNTLYLQMNSLRAEDTAVYYCAKNAGAGGWHAAYIDAWGQGTTVTVSS VL: SYELTQPPSVSVSPGQTASITCSGGGGSYGWYQQKPGQSPVTVIYWNDKRPSGIPERFSGSKSGNTATLTISGTQAMDEADYYCGGWDSSTYAIFGGGTKLTVL |
| comparable affinity | EP-1F: anti-CD55 antibody screened from G4-1H random mutation library, VL SEQ ID NO 4, VH SEQ ID NO 20 (antibody, V domains shown, EP-1F_VH; G4-1H_VL) VH: EVQLAESGGGLVQPGGSLRLSCAASGFTFSDRGMAWVRQAPGKGLEWVSGISSSGRYTYYAPAVKGRATISRDNSKNTLYLQMNSLRAEDTAVYYCAKNAVAGGWHAAYIDAWGQGTTVTVSS VL: SYELTQPPSVSVSPGQTASITCSGGGGSYGWYQQKPGQSPVTVIYWNDKRPSGIPERFSGSKSGNTATLTISGTQAMDEADYYCGGWDSSTYAIFGGGTKLTVL |
| comparable affinity | EP-1E: anti-CD55 antibody screened from G4-1H random mutation library, VL SEQ ID NO 18, VH SEQ ID NO 19 (antibody, V domains shown, EP-1E_VH; EP-1E_VL) VH: EVQLVESGGGLVQPGGSLRLSCAASGFTFSDRGMAWVRQAPGKGLEWVSGISSSGRYTYYAPAVKGRATISRDNSKNTLYLQMNSLRAEDTAVYYCAKNAVAGGWHAAYIDAWGQGTTVTVSS VL: SYELTQPPSVSVSPGQTASITCSGGGGSYGWFQQKPGQSPVTVIYWNNKRPSGIPERFSGSKSGNTATLTISGTQAMDEADYYCGGWDSSTYAIFGGGTKLTVL |
| comparable affinity | 3R-2-1H: anti-CD55 antibody screened from G4-1H random mutation library, VL SEQ ID NO 4, VH SEQ ID NO 22 (antibody, V domains shown, 3R-2-1H_VH; G4-1H_VL) VH: EVQLVESGGGLVQPGGSLRLSCVARGFTFSDRGMAWVRQAPGKGLEWVSGISSSGRYTYYAPAVKGRTTISRDNSKNTLYLQMNSLRAEDTAVYYCAKNAVAGGWHAAYIDAWGQGTTVTVSS VL: SYELTQPPSVSVSPGQTASITCSGGGGSYGWYQQKPGQSPVTVIYWNDKRPSGIPERFSGSKSGNTATLTISGTQAMDEADYYCGGWDSSTYAIFGGGTKLTVL |
| lower affinity than EP-10H | 10H(F): EP-10H backbone with H100A site replaced with F, VH SEQ ID NO 28, EP-10H light chain (antibody, V domains shown) VH: EVQLAESGGGLVQPGGSLRLSCAASGFTFSDRGMAWVRQAPGKGLEWVSGISSSGRYTYYAPAVKGRATISRDNSKNTLYLQMNSLRAEDTAVYYCAKNAFAGGWHAAYIDAWGQGTTVTVSS VL: SYELTQPPSVSVSPGQTASITCSGGGGSYGWYQQKPGQSPVTVIYWNDKRPSGIPERFSGSKSGNTATLTISGTQAMDEADYYCGGWDSSTYAIFGGGTKLTVL |
| lower affinity than EP-10H | 10H(L): EP-10H backbone with H100A site replaced with L, VH SEQ ID NO 27, EP-10H light chain (antibody, V domains shown) VH: EVQLAESGGGLVQPGGSLRLSCAASGFTFSDRGMAWVRQAPGKGLEWVSGISSSGRYTYYAPAVKGRATISRDNSKNTLYLQMNSLRAEDTAVYYCAKNALAGGWHAAYIDAWGQGTTVTVSS VL: SYELTQPPSVSVSPGQTASITCSGGGGSYGWYQQKPGQSPVTVIYWNDKRPSGIPERFSGSKSGNTATLTISGTQAMDEADYYCGGWDSSTYAIFGGGTKLTVL |
| lower affinity than EP-10H | 10H(A) (antibody, V domains shown) VH: EVQLVESGGGLVQPGGSLRLSCAASGFTFSDRGMAWVRQAPGKGLEWVSGISSSGRYTYYAPAVKGRATISRDNSKNTLYLQMNSLRAEDTAVYYCAKNAAAGGWHAAYIDAWGQGTTVTVSS VL: SYELTQPPSVSVSPGQTASITCSGGGGSYGWYQQKPGQSPVTVIYWNDKRPSGIPERFSGSKSGNTATLTISGTQAMDEADYYCGGWDSSTYAIFGGGTKLTVL |
| lower affinity than EP-10H | 10H(I) (antibody, V domains shown) VH: EVQLVESGGGLVQPGGSLRLSCAASGFTFSDRGMAWVRQAPGKGLEWVSGISSSGRYTYYAPAVKGRATISRDNSKNTLYLQMNSLRAEDTAVYYCAKNAIAGGWHAAYIDAWGQGTTVTVSS VL: SYELTQPPSVSVSPGQTASITCSGGGGSYGWYQQKPGQSPVTVIYWNDKRPSGIPERFSGSKSGNTATLTISGTQAMDEADYYCGGWDSSTYAIFGGGTKLTVL |

| Molecule | affinity for CD55 (indirect ELISA, absorbance at 450 nm) |
| --- | --- |
| EP-9B: anti-CD55 antibody screened from G4-1H random mutation library, VL SEQ ID NO 4, VH SEQ ID NO 21 (antibody, V domains shown, EP-9B_VH; G4-1H_VL) VH: EVQLVESGGGLVQPGGSLRLSCAASGFTFSDRGMVWVRQSPGKGLEWVSGISSSGRYTYYAPAVKGRATISRDNSKNTLYLQMNNLRAEDTAVYYCAKNAVAGGWHAAYIDAWGQGTTVTVSS VL: SYELTQPPSVSVSPGQTASITCSGGGGSYGWYQQKPGQSPVTVIYWNDKRPSGIPERFSGSKSGNTATLTISGTQAMDEADYYCGGWDSSTYAIFGGGTKLTVL | affinity higher than that of 4-1H but lower than those of other antibodies |

Molecular target: T2, recombinant human CD55 (R&D Systems …)
Assay: indirect ELISA, recombinant human CD55 coated
Conditions: not given

| binding result | Molecule |
| --- | --- |
| binds | 3R-2-1H (antibody, V domains shown, Tested as full-length IgG) VH: EVQLVESGGGLVQPGGSLRLSCVARGFTFSDRGMAWVRQAPGKGLEWVSGISSSGRYTYYAPAVKGRTTISRDNSKNTLYLQMNSLRAEDTAVYYCAKNAVAGGWHAAYIDAWGQGTTVTVSS VL: SYELTQPPSVSVSPGQTASITCSGGGGSYGWYQQKPGQSPVTVIYWNDKRPSGIPERFSGSKSGNTATLTISGTQAMDEADYYCGGWDSSTYAIFGGGTKLTVL |
| binds | 10H(A) (antibody, V domains shown) VH: EVQLVESGGGLVQPGGSLRLSCAASGFTFSDRGMAWVRQAPGKGLEWVSGISSSGRYTYYAPAVKGRATISRDNSKNTLYLQMNSLRAEDTAVYYCAKNAAAGGWHAAYIDAWGQGTTVTVSS VL: SYELTQPPSVSVSPGQTASITCSGGGGSYGWYQQKPGQSPVTVIYWNDKRPSGIPERFSGSKSGNTATLTISGTQAMDEADYYCGGWDSSTYAIFGGGTKLTVL |
| binds | EP-1F (antibody, V domains shown, Tested as full-length IgG) VH: EVQLAESGGGLVQPGGSLRLSCAASGFTFSDRGMAWVRQAPGKGLEWVSGISSSGRYTYYAPAVKGRATISRDNSKNTLYLQMNSLRAEDTAVYYCAKNAVAGGWHAAYIDAWGQGTTVTVSS VL: SYELTQPPSVSVSPGQTASITCSGGGGSYGWYQQKPGQSPVTVIYWNDKRPSGIPERFSGSKSGNTATLTISGTQAMDEADYYCGGWDSSTYAIFGGGTKLTVL |
| binds | EP-9B (antibody, V domains shown, Tested as full-length IgG) VH: EVQLVESGGGLVQPGGSLRLSCAASGFTFSDRGMVWVRQSPGKGLEWVSGISSSGRYTYYAPAVKGRATISRDNSKNTLYLQMNNLRAEDTAVYYCAKNAVAGGWHAAYIDAWGQGTTVTVSS VL: SYELTQPPSVSVSPGQTASITCSGGGGSYGWYQQKPGQSPVTVIYWNDKRPSGIPERFSGSKSGNTATLTISGTQAMDEADYYCGGWDSSTYAIFGGGTKLTVL |
| binds | 10H(I) (antibody, V domains shown) VH: EVQLVESGGGLVQPGGSLRLSCAASGFTFSDRGMAWVRQAPGKGLEWVSGISSSGRYTYYAPAVKGRATISRDNSKNTLYLQMNSLRAEDTAVYYCAKNAIAGGWHAAYIDAWGQGTTVTVSS VL: SYELTQPPSVSVSPGQTASITCSGGGGSYGWYQQKPGQSPVTVIYWNDKRPSGIPERFSGSKSGNTATLTISGTQAMDEADYYCGGWDSSTYAIFGGGTKLTVL |
| binds | EP-1E (antibody, V domains shown, Tested as full-length IgG) VH: EVQLVESGGGLVQPGGSLRLSCAASGFTFSDRGMAWVRQAPGKGLEWVSGISSSGRYTYYAPAVKGRATISRDNSKNTLYLQMNSLRAEDTAVYYCAKNAVAGGWHAAYIDAWGQGTTVTVSS VL: SYELTQPPSVSVSPGQTASITCSGGGGSYGWFQQKPGQSPVTVIYWNNKRPSGIPERFSGSKSGNTATLTISGTQAMDEADYYCGGWDSSTYAIFGGGTKLTVL |
